The chains are these.
B1: KIAA1614 peptide 568-583 (uncharacterized protein KIAA1614), 16-mer library wild type / USP8 rhodanese domain (ubiquitin carboxyl-terminal hydrolase 8, residues 174-317) (parent)
chain 1: GMERVLGGLSSPLRLL
chain 2: KCETKEKGAITAKELYTMMTDKNISLIIMDARRMQDYQDSCILHSLSVPEEAISPGVTASWIEAHLPDDSKDTWKKRGNVEYVVLLDWFSSAKDLQIGTTLRSLKDALFKWESKTVLRNEPLVLEGGYENWLLCYPQYTTNAKV

In the experiment the parent is B1. As to the kind of experiment: peptide-phage display deep mutational scan (M13, 16-mer library, displayed with a C-terminal GGGSG linker encoded by the 3' flank) selected against the GST-tagged USP8 rhodanese domain, four rounds; NGS counts summed over selection …. To be noted: with USP8 rhodanese domain (ubiquitin carboxyl-terminal hydrolase 8, residues 174-317), 10 µg GST-bait on MaxiSorp, pre-cleared on GST, 2 h at 4 °C, five washes with 0.05% Tween 20 in PBS, not graded, scale: average over two replicas of the peptide's fractional NGS count.
For the variant chain 1 GMERVLGGLSSPLGLL [chain 1 R14G], the screen value stood at 1.9e-05.

With chain 1 GMERVLGGLSSPLFLL [chain 1 R14F], the screen value turned out to be 0.00138.

As for chain 1 GMERVLGGLSSPLHLL [chain 1 R14H], the screen value was 0.000346.

For the variant chain 1 GMERVLGGLSSPKRLL [chain 1 L13K], the screen value worked out at 6.32e-06.

On to chain 1 GMERVLGGLSSPVRLL [chain 1 L13V], for which the screen value turned out to be 0.000364.

With chain 1 GMERVLGGLSSPERLL [chain 1 L13E], the screen value is 0.000467.

As for chain 1 GMERVLGGLSSPWRLL [chain 1 L13W], the screen value is 0.000724.

On to chain 1 GMERVLGGLSSPARLL [chain 1 L13A], for which the screen value turned out to be 4.42e-05.

Take chain 1 GMERVLGGLSSPGRLL [chain 1 L13G]: the screen value was 6.32e-05.

For the variant chain 1 GMERVLGGLSSPTRLL [chain 1 L13T], the screen value worked out at 0.00145.

As to chain 1 GMERVLGGLSSPHRLL [chain 1 L13H], the screen value was found to be 2.53e-05.

For the variant chain 1 GMERVLGGLSSPFRLL [chain 1 L13F], the screen value was determined as 3.09e-05.

Consider chain 1 GMERVLGGLSSPRRLL [chain 1 L13R], for which the screen value came to 1.26e-05.

As for chain 1 GMERVLGGLSSPSRLL [chain 1 L13S], the screen value was 0.00179.

With chain 1 GMERVLGGLSSPMRLL [chain 1 L13M], the screen value amounted to 0.000258.

As for chain 1 GMERVLGGLSSPYRLL [chain 1 L13Y], the screen value is 0.000122.

On to chain 1 GMERVLGGLSSPNRLL [chain 1 L13N], for which the screen value is 6.32e-06.

On to chain 1 GMERVLGGLSSPDRLL [chain 1 L13D], for which the screen value is 3.72e-05.

Take chain 1 GMERVLGGLSSPPRLL [chain 1 L13P]: the screen value is 1.26e-05.

chain 1 GMERVLGGLSSRLRLL [chain 1 P12R]: the screen value was found to be 1.26e-05.

Turning to chain 1 GMERVLGGLSSLLRLL [chain 1 P12L], the screen value came out at 6.32e-06.

Turning to chain 1 GMERVLGGLSSQLRLL [chain 1 P12Q], the screen value was 6.32e-06.

As to chain 1 GMERVLGGLSSTLRLL [chain 1 P12T], the screen value came out at 1.55e-05.

As to chain 1 GMERVLGGLSSSLRLL [chain 1 P12S], the screen value turned out to be 0.000236.

As to chain 1 GMERVLGGLSSPLRGL [chain 1 L15G], the screen value turned out to be 1.26e-05.

With chain 1 GMERVLGGLSSPLRVL [chain 1 L15V], the screen value came to 1.26e-05.

For the variant chain 1 GMERVLGGLSSPLRNL [chain 1 L15N], the screen value was 1.26e-05.

With chain 1 GMERVLGGLSSPLRAL [chain 1 L15A], the screen value amounted to 1.26e-05.

With chain 1 GMERVLGGLSSPLRIL [chain 1 L15I], the screen value amounted to 6.32e-06.

Consider chain 1 GMERVQGGLSSPLRLL [chain 1 L6Q], for which the screen value was 1.9e-05.

As for chain 1 GMERVSGGLSSPLRLL [chain 1 L6S], the screen value stood at 6.32e-06.

Turning to chain 1 GMERVIGGLSSPLRLL [chain 1 L6I], the screen value is 0.00654.

Regarding chain 1 GMERVGGGLSSPLRLL [chain 1 L6G], the screen value worked out at 6.88e-05.

chain 1 GMERVVGGLSSPLRLL [chain 1 L6V]: the screen value turned out to be 6.32e-06.

chain 1 GMERVNGGLSSPLRLL [chain 1 L6N]: the screen value was found to be 6.32e-06.

Regarding chain 1 GMERVTGGLSSPLRLL [chain 1 L6T], the screen value is 5.05e-05.

Regarding chain 1 GMERVPGGLSSPLRLL [chain 1 L6P], the screen value was found to be 0.000164.

As to chain 1 GMERVFGGLSSPLRLL [chain 1 L6F], the screen value came to 6.32e-06.

For the variant chain 1 GMERVLGGLSSPLRLI [chain 1 L16I], the screen value was 0.000468.

With chain 1 GMERVLGGLSSPLRLG [chain 1 L16G], the screen value amounted to 6.32e-06.

As to chain 1 GMERVLGGLSSPLRLM [chain 1 L16M], the screen value turned out to be 0.00379.

Regarding chain 1 GMERVLGGLSSPLRLA [chain 1 L16A], the screen value stood at 1.55e-05.

With chain 1 GMERVLGGLSSPLRLV [chain 1 L16V], the screen value worked out at 5.05e-05.

For the variant chain 1 GMERVLGGLSSPLRLN [chain 1 L16N], the screen value turned out to be 6.32e-06.

For chain 1 GMERVLGGLSSPLRLH [chain 1 L16H], the screen value came out at 0.000246.

With chain 1 GMERVLGGLSSPLRLT [chain 1 L16T], the screen value was 1.55e-05.

As for chain 1 GMERVLGGLSSPLRLF [chain 1 L16F], the screen value is 2.53e-05.

With chain 1 GMERVLGGLSSPLRLQ [chain 1 L16Q], the screen value was 7.58e-05.

In the case of chain 1 GMERVLGGLSSPLRLP [chain 1 L16P], the screen value worked out at 1.26e-05.

As for chain 1 GMERVLWGLSSPLRLL [chain 1 G7W], the screen value worked out at 6.32e-06.

For the variant chain 1 GMERVLTGLSSPLRLL [chain 1 G7T], the screen value worked out at 0.0883.

For the variant chain 1 GMERVLDGLSSPLRLL [chain 1 G7D], the screen value is 0.0412.

Regarding chain 1 GMERVLEGLSSPLRLL [chain 1 G7E], the screen value is 0.00446.

On to chain 1 GMERVLMGLSSPLRLL [chain 1 G7M], for which the screen value came to 0.00706.

On to chain 1 GMERVLYGLSSPLRLL [chain 1 G7Y], for which the screen value turned out to be 0.000924.

For the variant chain 1 GMERVLAGLSSPLRLL [chain 1 G7A], the screen value came out at 0.00275.

Turning to chain 1 GMERVLFGLSSPLRLL [chain 1 G7F], the screen value is 0.00722.

Regarding chain 1 GMERVLKGLSSPLRLL [chain 1 G7K], the screen value came out at 1.55e-05.

As to chain 1 GMERVLRGLSSPLRLL [chain 1 G7R], the screen value was 0.00011.

With chain 1 GMERVLHGLSSPLRLL [chain 1 G7H], the screen value came out at 0.000322.

For chain 1 GMERVLPGLSSPLRLL [chain 1 G7P], the screen value came out at 1.55e-05.

For the variant chain 1 GMERVLIGLSSPLRLL [chain 1 G7I], the screen value worked out at 0.000523.

In the case of chain 1 GMERVLVGLSSPLRLL [chain 1 G7V], the screen value was 0.0068.

As to chain 1 GMERVLNGLSSPLRLL [chain 1 G7N], the screen value was 0.00247.

Regarding chain 1 GMERVLQGLSSPLRLL [chain 1 G7Q], the screen value was 0.00689.

As to chain 1 GMERVLLGLSSPLRLL [chain 1 G7L], the screen value turned out to be 0.000596.

For the variant chain 1 GMERVLSGLSSPLRLL [chain 1 G7S], the screen value was determined as 0.000797.

With chain 1 GMERVLGTLSSPLRLL [chain 1 G8T], the screen value is 6.32e-06.

For the variant chain 1 GMERVLGVLSSPLRLL [chain 1 G8V], the screen value is 0.000138.

With chain 1 GMERVLGDLSSPLRLL [chain 1 G8D], the screen value was determined as 6.32e-06.

Turning to chain 1 GMERVLGNLSSPLRLL [chain 1 G8N], the screen value turned out to be 1.26e-05.

As for chain 1 GMETVLGGLSSPLRLL [chain 1 R4T], the screen value turned out to be 6.32e-06.

As for chain 1 GMEWVLGGLSSPLRLL [chain 1 R4W], the screen value stood at 5.05e-05.

chain 1 GMELVLGGLSSPLRLL [chain 1 R4L]: the screen value amounted to 1.26e-05.

Regarding chain 1 GMEAVLGGLSSPLRLL [chain 1 R4A], the screen value is 1.55e-05.

On to chain 1 GMENVLGGLSSPLRLL [chain 1 R4N], for which the screen value amounted to 1.9e-05.

Consider chain 1 GMERVLGGVSSPLRLL [chain 1 L9V], for which the screen value turned out to be 0.00586.

In the case of chain 1 GMERVLGGPSSPLRLL [chain 1 L9P], the screen value is 0.000947.

chain 1 GMERVLGGRSSPLRLL [chain 1 L9R]: the screen value stood at 1.26e-05.

On to chain 1 GMERVLGGQSSPLRLL [chain 1 L9Q], for which the screen value was 0.0169.

Consider chain 1 GMERVLGGHSSPLRLL [chain 1 L9H], for which the screen value was found to be 4.07e-05.

In the case of chain 1 GMERVLGGNSSPLRLL [chain 1 L9N], the screen value amounted to 0.00178.

Take chain 1 GMERVLGGSSSPLRLL [chain 1 L9S]: the screen value is 0.000763.

Consider chain 1 GMERVLGGFSSPLRLL [chain 1 L9F], for which the screen value was 3.79e-05.

With chain 1 GMERVLGGMSSPLRLL [chain 1 L9M], the screen value worked out at 9.62e-05.

In the case of chain 1 GMERVLGGESSPLRLL [chain 1 L9E], the screen value turned out to be 0.164.

Consider chain 1 GMERVLGGKSSPLRLL [chain 1 L9K], for which the screen value is 9.69e-05.

As to chain 1 GMERVLGGWSSPLRLL [chain 1 L9W], the screen value is 0.000202.

On to chain 1 GMERVLGGTSSPLRLL [chain 1 L9T], for which the screen value was found to be 0.0151.

As for chain 1 GMERVLGGISSPLRLL [chain 1 L9I], the screen value was 0.000484.

In the case of chain 1 GMERVLGGYSSPLRLL [chain 1 L9Y], the screen value worked out at 6.18e-05.

Consider chain 1 GMERVLGGASSPLRLL [chain 1 L9A], for which the screen value came out at 0.00126.

As for chain 1 GMERVLGGDSSPLRLL [chain 1 L9D], the screen value came to 0.0392.

chain 1 GMERVLGGGSSPLRLL [chain 1 L9G]: the screen value turned out to be 9.76e-05.

(Values after paper PMC12057046, “Elucidation of short linear motif-based interactions of the MIT and rhodanese domains of the ubiquitin-specific protease 8” (Biology Direct, 2025).)
